Experimental findings from patent EP4635980A1 (Medigene Immunotherapies GmbH, dated 2025) are described below.

In assay [1] the target is T1, ALA-5 mutagenic UNI-tag peptide (DKGEAPKDRFSA).
T1 construct: UNI-tag with alanine at position 5 (V5A); also called Uni-TAG-ALA 5; negative control
T1 peptide: DKGEAPKDRFSA
Description: dot blot, peptide on PVDF membrane.

The target of assay [2] is T2, ALA-10 mutagenic UNI-tag peptide (DKGEVPKDRASA).
T2 construct: UNI-tag with alanine at position 10 (F10A); also called Uni-Tag-ALA 10; positive control
T2 peptide: DKGEVPKDRASA
Description: dot blot, peptide on PVDF membrane.

B1: MDG827 monoclonal antibody (MDG827 hybridoma supernatant) (antibody, V domains shown)
VH: EVQLEESGGGLVQPGRSMKLSCAASGFTFSDYGMAWVLQGPTKGLEWVASISYDGNRPYYRDSVKGRFTISRDNAKSTLYLQMESLRSEDTATYYCVKDLFEIGDFDYWGQGVMVTVSS
VL: DVLMTQTPVSLPVSLGGQVSISCRSSQSLVHSDGNTYLHWYLQKPGQSPQLLIYRVSNRFSGVPDRFTGSGSGTDFTLKISRVEPEDLGVYYCLQSTHFPLTFGSGTKLEIKR
notes: detected with anti-IgG2a secondary antibody; Used as hybridoma supernatant; also called MDG827 antibody; MDG827 Ab
Turning to B1, the binding result is “no binding” in assay [1] and “binds” in assay [2].

B2: recombinant monoclonal MDG827 antibody (produced in HEK293 cells) (antibody, V domains shown)
VH: B1 VH
VL: B1 VL
notes: used as culture supernatant; Detected with anti-rat IgG2a; also called recombinantly produced MDG827; anti-TRBC MDG827 antibody
B2: the binding result in assay [1] was “no binding”.
